In general, Km refers to the substrate concentration at which the rate is half of its maximum.

“Also recorded” adds a separate entry of the source.

The values below come from patent publication US20230322857A1, “RECOMBINANTLY ENGINEERED POLYPEPTIDES CAPABLE OF RECYCLING NONCANONICAL COFACTORS” (The Regents of the University of California, priority 2022, published 2023).

Format in all cases: biochemical
Data set [1] in a line: BNA(H)-mediated PTDH biotransformation with TsOYE. The method, then: BNA(H)-Mediated PTDH Biotransformation. Reactions with BNA^+, see FIG. 10D, contained 100 mM MOPS-NaOH at pH 7.6, 10 mM KIP, 100 mM sodium phosphite, and 2% v/v DMSO. BNA^+Cl^−, prepared by refluxing equimolar amounts of nicotinamide and benzyl chloride in acetonitrile overnight, followed by precipitation with diethyl ether on ice was supplied to the reactions at final concentrations of 0, 5, 10, or 20 mM. Reactions were initiated by spiking TsOYE and the appropriate TS-PTDH variant to a final concentration of 10 μM, each. Reaction mixtures were incubated at 30° C. on a Thermomixer C (Eppendorf) with shaking at 900 rpm for 24 h, extracted with 500 μL ethyl acetate containing 5 mM n-dodecane, and analyzed by GC-FID. The cycling system with no BNA was used to determine the background activity of the cycling systems. This value was subtracted from the final levodione concentrations in the 5-, 10-, and 20-mM samples to determine the BNA(H)^− specific levodione production. Concentrations of levodione product were determined using a calibration line (0-10 mM, 6 levels, using n-dodecane as internal standard). The y-intercept of the calibration line was forced through 0.
For BNA(H)-mediated reactions, gas chromatography analyses were performed on a GC-2010 (Shimadzu, Japan) equipped with an AOC-20i auto injector and a flame ionization detector (FID), using a CP-Sil 5 column (25 m×0.25 mm×[…]). 1 μL of sample was injected with a split ratio of 100:1 and injector at 340° C. The FID was maintained at 360° C. Nitrogen was used as the carrier gas, with a linear velocity of 30 cm/s. The oven was held at 135° C. for 1 min, ramped at 15° C./min to 215° C., then 30° C./min to 345° C., and held at 345° C. for 1 min.
Expression and Purification of Proteins for BNA(H)-Mediated Biotransformation Reactions. E. coli BL21(DE3) strains were transformed with the plasmids containing the TS-PTDH variants and grown on LB-agar plates containing ampicillin at 37° C. overnight. An overnight culture, 15 mL LB supplemented with ampicillin, was inoculated with a single colony, and grown at 37° C., 170 rpm overnight. 2 L baffled shake-flasks with 250 mL of 2×YT media containing 200 μg/mL ampicillin, were inoculated with the overnight culture, grown at 37° C., 170 rpm until OD600 of ˜1.0, induced with IPTG (0.5 mM), and grown at 30° C. and 170 rpm for 24 h. Cells were harvested by centrifugation at 18,000×g, 4° C., 10 min and stored at −20° C. until purification.
The pellet was resuspended in four volumes loading buffer (50 mM sodium phosphate, 300 mM sodium chloride, 10 mM imidazole, pH 7.7), and lysed on ice by sonication (Branson sonifier 250; 15 min total, 40% duty cycle, output control 3.5, 2 mm tip). The lysate was clarified (21,000×g, 4° C., 30 min followed by 0.2 μm filtration), and loaded (1 mL/min) onto a Nickel-HisTrap FF crude (1 mL) column, washed with loading buffer (12 column volumes, CV), followed by a step with 10% elution buffer (loading buffer containing 250 mM imidazole; 12 CV). The protein was then eluted with 100% elution buffer and collected in fractions of 0.5 mL. Fractions containing protein were combined and dialyzed against ice-cold dialysis buffer (50 mM sodium phosphate, pH 7.7, 800 mL); the buffer was renewed after the first 2 h of dialysis. Following the dialysis, the protein was mixed with glycerol (20% v/v final concentration). Enzyme concentrations were estimated by the absorbance at 280 nm (non-denatured protein), using predicted extinction coefficients (wild type and LY-13: 26470, LY-7: […]; web.expasy.org/protparam/). The protein was aliquoted, flash frozen in liquid nitrogen, and stored at −80° C. until use. […]

Data set [2] is described as follows: Steady-state kinetics of TS-PTDH variants with NAD^+. The settings on record: 100 mM MOPS, pH 7.25, 10 mM sodium phosphite, varied cofactor concentrations; n = 3.
Data set [3] in a line: Comparison of PTDH and GDH Triple redox cofactor cycling systems. The method, then:
Comparison of PTDH and GDH Triple Redox Cofactor Cycling Systems. In cycling reactions focused on higher conversion and productivity, see FIG. 10C, the concentration of cofactor cycling protein (TS-PTDH or GDH Triple) was increased relative to the TTN determination experiments. Reactions were performed at 30° C. without shaking in 1 mL volumes in 2 mL glass vials secured with a PTFE-lined screw cap. Sampling and GC-FID analysis were performed as described in the TTN method section.
Reactions utilizing TS-PTDH LY-13 contained 100 mM MOPS at pH 7.5, 100 mM sodium phosphite, 33 mM KIP, and 18.8 μM XenA. Reactions utilizing GDH Triple contained 200 mM potassium phosphate at pH 7.5, 300 mM D-glucose, 1 M NaCl, 33 mM KIP, and 18.8 μM XenA. The NMN^+ concentration in each reaction was varied at 0, 0.05, 0.1, 0.5, or 5 mM. The reactions were initiated by spiking TS-PTDH LY-13 or GDH Triple to a final concentration of 10 μM.

B1: LY-13: phosphite dehydrogenase variant with A155N, E175A, A176F (SEQ ID NO: 6) (protein)
chain: MLPKLVITHRVHEEILQLLAPHCELITNQTDSTLTREEILRRCRDAQAMMAFMPDRVDADFLQACPELRVIGCALKGFDNFDVDACTARGVWLTFVPDLLTVPTAELAIGLAVGLGRHLRAADAFVRSGKFRGWQPRFYGTGLDNATVGFLGMGNIGLAMADRLQGWGATLQYHAFKALDTQTEQRLGLRQVACSELFASSDFILLALPLNADTLHLVNAELLALVRPGALLVNPCRGSVVDEAAVLAALERGQLGGYAADVFEMEDWARADRPQQIDPALLAHPNTLFTPHIGSAVRAVRLEIERCAAQNILQALAGERPINAVNRLPKANPAAD
Consider B1, for which, in data set [1], the “activity / cycling with BNA^+ compared to wild type” value was “enhanced activity for BNA^+ reduction”. Besides, the “response of biotransformation efficiency to BNA^+ concentration” value in data set [1] (0, 5, 10, or 20 mM BNA^+) is recorded as “cofactor dose-dependent response”. The “utilization of the BNA^+ pool relative to the wild type protein” value in data set [1] (20 mM BNA^+ supplementation, TsOYE, 24 h) is “improved utilization of the BNA^+ pool”. Also, in data set [2], the Km amounted to 180 ± 30 µM and the “NAD^+ kcat” value was 2.06 ± 0.11 s⁻¹. In addition, the “time to complete conversion of the 33 mM KIP pool” value in data set [3] (5 mM NMN^+ supplied, 10 μM cycling enzyme, 18.8 μM XenA) turned out to be 12 h. The “biotransformation performance compared to GDH Triple at low NMN^+” value in data set [3] (NMN^+ supplementation 1 mM and lower) was “higher biotransformation rates and final titers; also recorded: more efficient utilization of the NMN^+ pool; also recorded: outperform GDH Triple”.
